According to PMC10840093:
Like-named read-outs stand apart in the source and are kept apart here.

Measured: degradation_or_half_life

LSD1: LSD1-3KR (K424, K432, K481)
decreases: ubiquitination at K424 | ubiquitination at K432 | ubiquitination at K481
